Values of other authors, collected in PMC10380471.
Like-named read-outs stand apart in the source and are kept apart here. Each block holds one substance with its values, some of them ahead of it.

How the values were obtained:
[1] = target: consensus peptide
[2] = target: consensus peptide; remark: listed apart in the source
[3] = target: consensus peptide; remark: listed apart in the source

Chain of Pim-1 (P11309 whole entry): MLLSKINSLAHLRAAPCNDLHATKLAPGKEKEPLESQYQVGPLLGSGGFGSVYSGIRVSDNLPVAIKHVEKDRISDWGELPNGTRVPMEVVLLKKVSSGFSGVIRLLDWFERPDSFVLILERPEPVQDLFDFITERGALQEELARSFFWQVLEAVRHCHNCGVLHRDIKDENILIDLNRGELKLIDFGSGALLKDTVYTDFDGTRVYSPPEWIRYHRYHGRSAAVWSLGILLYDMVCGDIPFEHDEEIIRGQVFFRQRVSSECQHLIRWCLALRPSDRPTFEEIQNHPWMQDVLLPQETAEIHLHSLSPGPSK
Chain of Pim-2 (Q9P1W9 whole entry): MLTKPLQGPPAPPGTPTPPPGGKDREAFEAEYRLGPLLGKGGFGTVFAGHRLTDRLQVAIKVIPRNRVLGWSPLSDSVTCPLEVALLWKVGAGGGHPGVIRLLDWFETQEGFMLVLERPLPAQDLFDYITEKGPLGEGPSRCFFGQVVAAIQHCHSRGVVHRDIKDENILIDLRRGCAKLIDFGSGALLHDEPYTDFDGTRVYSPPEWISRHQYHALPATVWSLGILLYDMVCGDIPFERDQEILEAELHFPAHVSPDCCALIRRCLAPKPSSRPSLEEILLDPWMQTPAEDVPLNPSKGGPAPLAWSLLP

Kd [1]: 39 nM
Substance: Pim-3 (from UniProt Q86V86)

Kd [2]: 640 nM
Substance: Pim-2 (from UniProt Q9P1W9)

Kd [3]: 58 nM
Substance: Pim-1 (from UniProt P11309)
